Tests used:
Assay in all cases: SPR
FcγRIIa-R131 = target: FcγRIIa-R131
FcγRIIa-H131 = target: FcγRIIa-H131
[1] = target: FcγRIIIa-F158 (His-tagged recombinant) (human, UniProt P08637 17-208)
[2] = target: FcγRIIIa-V158 (His-tagged recombinant) (human)
Sequence of FcγRIIIa-V158 (His-tagged recombinant) (human) (chain, as listed by the source): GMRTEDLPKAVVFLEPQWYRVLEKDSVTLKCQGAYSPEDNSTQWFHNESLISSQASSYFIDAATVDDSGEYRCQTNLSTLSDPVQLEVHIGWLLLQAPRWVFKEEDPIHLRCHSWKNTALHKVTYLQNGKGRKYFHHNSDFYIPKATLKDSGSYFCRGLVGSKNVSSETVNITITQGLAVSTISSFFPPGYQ

Sequence of FcγRIIIa-F158 (His-tagged recombinant) (P08637 17-208): as the sequence (chain, as listed by the source) above, with V160F counted along it

Kd (FcγRIIa-R131): 1440 nM
Kd (FcγRIIa-H131): 764 nM
Kd [1]: 113 nM
Kd [2]: 91.7 nM
B1: margetuximab (antibody)
chain 1: QVQLQQSGPELVKPGASLKLSCTASGFNIKDTYIHWVKQRPEQGLEWIGRIYPTNGYTRYDPKFQDKATITADTSSNTAYLQVSRLTSEDTAVYYCSRWGGDGFYAMDYWGQGASVTVSS
chain 2: DIVMTQSHKFMSTSVGDRVSITCKASQDVNTAVAWYQQKPGHSPKLLIYSASFRYTGVPDRFTGSRSGTDFTFTISSVQAEDLAVYYCQQHYTTPPTFGGGTKVEIK
